Test results: IntAct's records for PubMed 29039417

B1: BBSome complex member BBS2 (Homo sapiens), Q9BXC9 (parent)
chain: MLLPVFTLKLRHKISPRMVAIGRYDGTHPCLAAATQTGKVFIHNPHTRNQHVSASRVFQSPLESDVSLLSINQAVSCLTAGVLNPELGYDALLVGTQTNLLAYDVYNNSDLFYREVADGANAIVLGTLGDISSPLAIIGGNCALQGFNHEGSDLFWTVTGDNVNSLALCDFDGDGKKELLVGSEDFDIRVFKEDEIVAEMTETEIVTSLCPMYGSRFGYALSNGTVGVYDKTSRYWRIKSKNHAMSIHAFDLNSDGVNELITGWSNGKVDARSDRTGEVIFKDNFSSAIAGVVEGDYRMDGHIQLICCSVDGEIRGYLPGTAEMRGNLMDTSAEQDLIRELSQKKQNLLLELRNYEENAKAELASPLNEADGHRGIIPANTRLHTTLSVSLGNETQTAHTELRISTSNDTIIRAVLIFAEGIFTGESHVVHPSIHNLSSSICIPIVPPKDVPVDLHLKAFVGYRSSTQFHVFESTRQLPRFSMYALTSLDPASEPISYVNFTIAERAQRVVVWLGQNFLLPEDTHIQNAPFQVCFTSLRNGGHLHIKIKLSGEITINTDDIDLAGDIIQSMASFFAIEDLQVEADFPVYFEELRKVLVKVDEYHSVHQKLSADMADHSNLIRSLLVGAEDARLMRDMKTMKSRYMELYDLNRDLLNGYKIRCNNHTELLGNLKAVNQAIQRAGRLRVGKPKNQVITACRDAIRSNNINTLFKIMRVGTASS
partner: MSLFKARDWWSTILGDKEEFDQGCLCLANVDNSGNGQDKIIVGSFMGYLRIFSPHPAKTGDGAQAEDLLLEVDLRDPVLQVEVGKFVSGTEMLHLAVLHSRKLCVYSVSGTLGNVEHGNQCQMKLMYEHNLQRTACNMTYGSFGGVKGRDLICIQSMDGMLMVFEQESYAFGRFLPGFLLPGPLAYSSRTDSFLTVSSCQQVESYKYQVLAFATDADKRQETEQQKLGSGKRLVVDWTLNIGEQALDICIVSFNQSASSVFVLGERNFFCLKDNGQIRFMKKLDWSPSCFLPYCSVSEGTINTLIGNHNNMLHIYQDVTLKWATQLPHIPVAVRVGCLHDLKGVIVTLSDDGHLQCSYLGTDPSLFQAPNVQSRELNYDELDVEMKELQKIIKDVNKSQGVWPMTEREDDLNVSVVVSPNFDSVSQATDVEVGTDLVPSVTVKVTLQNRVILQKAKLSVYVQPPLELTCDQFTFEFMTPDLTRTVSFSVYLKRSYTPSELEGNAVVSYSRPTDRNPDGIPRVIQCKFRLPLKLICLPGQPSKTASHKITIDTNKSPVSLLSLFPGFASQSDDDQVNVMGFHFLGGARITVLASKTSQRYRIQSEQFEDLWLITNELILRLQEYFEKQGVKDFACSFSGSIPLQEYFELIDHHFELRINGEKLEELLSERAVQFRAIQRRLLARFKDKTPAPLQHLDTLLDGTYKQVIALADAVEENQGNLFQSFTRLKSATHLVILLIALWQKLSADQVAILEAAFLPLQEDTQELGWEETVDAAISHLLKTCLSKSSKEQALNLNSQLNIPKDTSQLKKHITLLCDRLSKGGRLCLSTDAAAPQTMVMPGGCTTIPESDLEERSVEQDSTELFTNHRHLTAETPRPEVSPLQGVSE

Variants of: B1
Settings: with pthb1_human BBS9, Q3SYG4

Variant	effect of a mutation on the interaction
H373E	with no effect
H373A	with no effect
H373K	with no effect
G372K	with no effect
G372E	with no effect
G372A	with no effect
P366A	with no effect
P366K	with no effect
P366E	with no effect
N380E	disrupting interaction strength
N380A	disrupting interaction strength
N380K	with no effect
L367E	with no effect
L367K	with no effect
L367A	with no effect
E369A	with no effect
E369K	with no effect
S390E	disrupting interaction strength
S390K	with no effect
S390A	with no effect
S390G	disrupting interaction strength
H384A	with no effect

Variant	effect of a mutation on the interaction
H384K	with no effect
H384E	with no effect
T397A	with no effect
T397K	with no effect
T397E	with no effect
G375E	disrupting interaction strength
G375K	with no effect
G375A	with no effect
L391E	with no effect
L391A	with no effect
L391K	with no effect
R374K	with no effect
R374E	with no effect
R374A	with no effect
R374W	disrupting interaction strength
V389A	with no effect
V389S	disrupting interaction strength
V389K	disrupting interaction strength
V389E	disrupting interaction strength
T381K	with no effect
T381A	with no effect
T381E	with no effect

Variant	effect of a mutation on the interaction
Q396E	with no effect
Q396K	with no effect
Q396A	with no effect
N393E	with no effect
N393K	with no effect
N393A	with no effect
S388P	disrupting interaction strength
S388K	with no effect
S388E	with no effect
S388A	with no effect
S365K	with no effect
S365E	with no effect
S365C	disrupting interaction strength
S365A	with no effect
R382K	with no effect
R382E	disrupting interaction strength
R382A	disrupting interaction strength
I377R	disrupting interaction strength
I377A	with no effect
I377K	with no effect
I377T	disrupting interaction strength
I377E	with no effect

Variant	effect of a mutation on the interaction
E394K	with no effect
E394A	with no effect
A370E	with no effect
A370K	with no effect
N368E	with no effect
N368K	with no effect
N368A	with no effect
T395K	with no effect
T395A	with no effect
T395E	with no effect
L387K	disrupting interaction strength
L387E	with no effect
L387A	with no effect
L383A	with no effect
L383K	with no effect
L383E	with no effect
G392E	with no effect
G392K	with no effect
G392A	with no effect
A379K	with no effect
A379E	with no effect
T386E	with no effect

Variant	effect of a mutation on the interaction
T386A	with no effect
T386K	with no effect
T385A	disrupting interaction strength
T385E	with no effect
T385K	with no effect
P378E	with no effect
P378K	with no effect
P378A	with no effect
H399E	with no effect
H399K	with no effect
H399A	with no effect
I376K	with no effect
I376A	with no effect
I376E	with no effect
I376V	disrupting interaction strength
A398V	disrupting interaction strength
A398E	with no effect
A398K	with no effect
D371A	with no effect
D371V	disrupting interaction strength
D371E	with no effect
D371K	with no effect

The next lines start with the values.

effect of a mutation on the interaction	Variant
with no effect	S407A
disrupting interaction strength	S407F
with no effect	S407E
with no effect	S407K
with no effect	L402A
disrupting interaction strength	L402K
disrupting interaction strength	L402C
disrupting interaction strength	L402E
with no effect	T406A
with no effect	T406E
with no effect	T406K
with no effect	N408E
disrupting interaction strength	N408A
with no effect	N408K
with no effect	R403A
with no effect	R403E
with no effect	R403K
with no effect	V415K
with no effect	V415A
with no effect	V415E
with no effect	S405A

effect of a mutation on the interaction	Variant
disrupting interaction strength	S405P
with no effect	S405E
with no effect	S405K
disrupting interaction strength	R413K
with no effect	R413E
with no effect	R413A
with no effect	A419K
with no effect	A419E
with no effect	I404E
with no effect	I404K
with no effect	I404A
with no effect	T410A
with no effect	T410E
with no effect	T410K
with no effect	F418A
with no effect	F418K
with no effect	F418E
with no effect	I417K
with no effect	I417E
with no effect	I417A
with no effect	E401K

effect of a mutation on the interaction	Variant
with no effect	E401A
with no effect	T400K
with no effect	T400A
with no effect	T400E
with no effect	E420A
with no effect	I412A
disrupting interaction strength	I412R
with no effect	I412E
with no effect	I412K
with no effect	D409E
with no effect	D409A
with no effect	D409K
with no effect	I411A
with no effect	I411E
with no effect	I411K
with no effect	A414K
disrupting interaction strength	A414V
with no effect	A414E
with no effect	L416E
with no effect	L416K
with no effect	L416A
